Measurements as given in IntAct's records for PubMed 31548606.

B1: Prelamin-A/C (Homo sapiens), P02545-1 (parent)
chain: METPSQRRATRSGAQASSTPLSPTRITRLQEKEDLQELNDRLAVYIDRVRSLETENAGLRLRITESEEVVSREVSGIKAAYEAELGDARKTLDSVAKERARLQLELSKVREEFKELKARNTKKEGDLIAAQARLKDLEALLNSKEAALSTALSEKRTLEGELHDLRGQVAKLEAALGEAKKQLQDEMLRRVDAENRLQTMKEELDFQKNIYSEELRETKRRHETRLVEIDNGKQREFESRLADALQELRAQHEDQVEQYKKELEKTYSAKLDNARQSAERNSNLVGAAHEELQQSRIRIDSLSAQLSQLQKQLAAKEAKLRDLEDSLARERDTSRRLLAEKEREMAEMRARMQQQLDEYQELLDIKLALDMEIHAYRKLLEGEEERLRLSPSPTSQRSRGRASSHSSQTQGGGSVTKKRKLESTESRSSFSQHARTSGRVAVEEVDEEGKFVRLRNKSNEDQSMGNWQIKRQNGDDPLLTYRFPPKFTLKAGQVVTIWAAGAGATHSPPTDLVWKAQNTWGCGNSLRTALINSTGEEVAMRKLVRSVTVVEDDEDEDGDDLLHHHHGSHCSSSGDPAEYNLRSRTVLCGTCGQPADKASASGSGAQVGGPISSGSSASSVTVTRSYRSVGGSGGGSFGDNLVTRSYLLGNSSPRTQSPQNCSIM
B2: Isoform 5 of Intermediate filament family orphan 1 (Homo sapiens), Q0D2I5-5 (parent)
chain: MNPLFGPNLFLLQQEQQGLAGPLGDSLGGDHFAGGGDLPPAPLSPAGPAAYSPPGPGPAPPAAMALRNDLGSNINVLKTLNLRFRCFLAKVHELERRNRLLEKQLQQALEEGKQGRRGLGRRDQAVQTGFVSPIRPLGLQLGARPAAVCSPSARVLGSPARSPAGPLAPSAASLSSSSTSTSTTYSSSARFMPGTIWSFSHARRLGPGLEPTLVQGPGLSWVHPDGVGVQIDTITPEIRALYNVLAKVKRERDEYKRRWEEEYTVRIQLQDRVNELQEEAQEADACQEELALKVEQLKAELVVFKGLMSNNLSELDTKIQEKAMKVDMDICRRIDITAKLCDVAQQRNCEDMIQMFQKKLVPSMGGRKRERKAAVEEDTSLSESEGPRQPDGDEEESTALSINEEMQRMLNQLREYDFEDDCDSLTWEETEETLLLWEDFSGYAMAAAEAQGEQQEDSLEKVIKDTESLFKTREKEYQETIDQIELELATAKNDMNRHLHEYMEMCSMKRGLDVQMETCRRLITQSGDRKSPAFTAVPLSDPPPPPSEAEDSDRDVSSDSSMR

Variants of: B1
Details: with iffo1_human IFFO1, Q0D2I5

Variant | effect of a mutation on the interaction
R386M | disrupting interaction strength
E358K | disrupting interaction strength

Variants of: B2
Details: with lmna_human LMNA

Variant | effect of a mutation on the interaction
A89V | with no effect
A89T | with no effect
R85H | disrupting interaction strength
N73D | disrupting interaction strength
N73K | decreasing interaction strength
A65P | with no effect
A65V | with no effect

Variants of: B2
Details: with xrcc4_human XRCC4, Q13426
Sequence of xrcc4_human XRCC4, Q13426 (Q13426 whole entry): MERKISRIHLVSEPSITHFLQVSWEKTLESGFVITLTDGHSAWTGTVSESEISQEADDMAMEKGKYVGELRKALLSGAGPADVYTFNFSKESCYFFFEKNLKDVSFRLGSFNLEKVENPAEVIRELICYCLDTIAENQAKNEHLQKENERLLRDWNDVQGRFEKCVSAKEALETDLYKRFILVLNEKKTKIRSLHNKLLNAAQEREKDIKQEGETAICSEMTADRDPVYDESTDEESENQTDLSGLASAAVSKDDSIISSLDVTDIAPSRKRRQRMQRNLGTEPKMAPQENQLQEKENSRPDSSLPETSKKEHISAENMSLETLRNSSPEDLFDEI

Variant | effect of a mutation on the interaction
D494A;D513A;R520A | disrupting interaction strength
C519R | disrupting interaction strength
D494A;R520A | disrupting interaction strength
I484R;A491R | disrupting interaction strength
M516R;C519R | disrupting interaction strength

Variants of: B2
Details: with lmna_human LMNA
Remark: another data set of the same source

Variant | effect of a mutation on the interaction
N73D;R85H | disrupting interaction strength
